Here are results for one substance from paper PMC8401255.

For the test, the target named is gramicidin A (Bacillus brevis). Kind of test: single-channel electrophysiology on a planar lipid bilayer; gA in a free-standing DPhPC planar bilayer (painting method, n-decane); dimer (channel) lifetime recorded with an Axopatch amplifier for 30 min at 20 °C; lidocaine or tetracaine in the buffer at 1, 3, 6 and 10 mM; lifetime normalised to that without local anesthetic (tau/tau0); monomer to dimer.

In the case of gramicidin A (peptide), the normalized dimer lifetime (tau/tau0) at 1 mM lidocaine is 1.33, the normalized dimer lifetime (tau/tau0) at 1 mM tetracaine turned out to be 1.88, the normalized dimer lifetime (tau/tau0) at 10 mM lidocaine amounted to 3.66 and the normalized dimer lifetime (tau/tau0) at 10 mM tetracaine is 6.85.
